Experimental data: the nanobody polyreactivity screen of Harvey et al. (2022)

test: yeast display, Sf9 membrane polyspecificity reagent, FACS + sequencing; frameworks hold sequencing errors
In short: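 Sorting gates, low and high (top ~1%), were placed on anti-HA fluorescence to track expression and on streptavidin fluorescence to track reagent binding. A clone's polyreactivity label is taken from the gate it came out of. The reagent was 10% biotinylated, detergent-solubilized Sf9 membrane, applied for 1 hour at 4 °C to galactose-induced yeast display cells.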

Sequence	polyreactivity (PSR sort gate)
QVQLVESGGGLVQAGGSLRLSSAASGFIFIIYAMGWYRPAPGKERELVAGIRWSGGSTYYADSVKGRFTISRDNAKNTVYLQMNSLKPEDTAVYYCNKDRGSLTLYTYDYWGQGTQVTVSS	low polyreactivity
QVQLVESGGGLVQAGGSLRLSSAASGFIIPDYGMGWYRQAPGKDSELVAAISRNGVSTYYADSVKGRFTISRDTAKNTVYLQMNSLKPEATAVYYCAARYYRIRRVSKSGYYWGQGTQVTVSS	low polyreactivity
QVQLVESGGGLVQAGGSLRLSSAASGFISPSYALGWYRPAPGTERELDAAIRSSDGSTYYADSVKGRFTISRDTAMNSVYLQMNSLKPEDTAVYYCAGGGSYYRDDYWGQGTQVTVSS	low polyreactivity
QVQLVESGGGLVQAGGSLRLSSAASGFTFARYAMGWYRQAPGKERELVAAITFSGTRTYYADSVKGRFTISRDNAKNTVYLQMNSLKPEDTAVYYCAAVVQTKAYRKAVYYFSSYDYWGQGTQVTVSS	high polyreactivity
QVQLVESGGGLVQAGGSLRLSSAASGFTFDYNTMGWDRQAPGKERELVAGISRGGGSTYYADSVKGRFTISRDNAKNTVYLQMNSLKPEDTAVYYCNTVLKRQRKNEYWGQGTQVTVSS	high polyreactivity
QVQLVESGGGLVQAGGSLRLSSAASGFTFKAYVMGWYRQAPGKERELVAASTRSGSSTYYADSVKGRFTISRDNGKNSVYLQMYSLKPEDTAVYYCAARYTQRPRRNYWGQVTQVTVSS	high polyreactivity
QVQLVESGGGLVQAGGSLRLSSAASGFTFPVYAMGWYRPATGKESELVAAISRRGGRTYYADSVKGRFTISRDNAKNRVYLQMNCLKPEDSAVYYCNKGETLYGSVPYDYWGQGTQLTVSS	high polyreactivity
QVQLVESGGGLVQAGGSLRLSSAASGFTFRIYAMGWYRQAPGKERELVATISWSGTSTYYADSVKGRFTISRDNAKNTVYLQMNSLKPEDTAVYYCAKDGVSFYWLNKYYYWGQGTQVTVSS	low polyreactivity
QVQLVESGGGLVQAGGSLRLSSAASGFTFRRYAMGWYRQAPGKERELVAAISTSGGNTYYADSVKGRFTISRDNAKNTVYLQMNSLKPEDTAVYYCYARRKDNGHGTPFDDYWGQGTQVTVSS	high polyreactivity
QVQLVESGGGLVQAGGSLRLSSAASGFTFSGYAMGWYRQAPVKERELVAAISSSGASTYYADSVKGRFTISRDNAKNTVYLQIHSLKPEDTAVYYCAAGTRLSDGYYWGQGTQVTVSS	high polyreactivity
QVQLVESGGGLVQAGGSLRLSSAASGFTFSLYRMGWYRQAPGKERELVASISNRGGTFYADSVKGRFTISRDNAKNTVYVQMNSLKPEETAVYYCARKTYYTGDFLGREYGYWGQGPQVTVSS	low polyreactivity
QVQLVESGGGLVQAGGSLRLSSAASGFTFVGYAMGWSRQAPGKERELVAAITGRGGTTYYADSVKGRFTISRDNAKNTVYLQMNSLKPEDTSVYYCAADTPSFWTEVDSWGQGTQVTLSS	low polyreactivity
QVQLVESGGGLVQAGGSLRLSSAASGGIFQLYAMGWYRQAPGKERELVADISRSGGSTYYADSVKGRFTISRDTAKNTVYLQMNSLKPEDTAVYYCAARYWTSIVRYRGDYWGQGTQVTVSS	high polyreactivity
QVQLVESGGGLVQAGGSLRLSSAASGGIFRYNAMGWYRQAPGKERELVAGISYRGGTTYYADSVKGRFTISRDNAKNTVYLQMNSLKPEDTAVYYCAAAASSPGGWFYYWGQVTQVTVSS	high polyreactivity
QVQLVESGGGLVQAGGSLRLSSAASGGIFSRYGMGSYRQAPGKERELVAAITWSGGRTYYADSVKGRFTISRDNAKNTVYLQMNSLKPEETAVYYCAALETSFSSVGYEYWGQGTQVTVSS	high polyreactivity
QVQLVESGGGLVQAGGSLRLSSAASGIIFPGYAMVWYRQAPGKERELVAAISSGGDTYYADSVKGRFTISRDNAKNTVYLQMNSLKPEDTGVYYCTAAQLSSDRTSNYGYYPWYEYWGQGTQVTVSS	low polyreactivity
QVQLVESGGGLVQAGGSLRLSSAASGITFERNGMGWYRQAPGKERELVAAIRSGGSTYYADSVKGRFTISRDNAKITVYLQMNSQKPEDTAVYYCAAVTQGGYTYLGDYWGQGTQVTVSS	low polyreactivity
QVQLVESGGGLVQAGGSLRLSSAASGITFFHYAMGWYRQEPGKERELVATISWRAGSTYADSVKGRFTISRDNAKKTVYLQMNSLKPEDTAVYYCNAVWTYHSGSGGYLFDYWGLGTQVTVSS	low polyreactivity
QVQLVESGGGLVQAGGSLRLSSAASGITFYFYVMGWYRQAPGKERELVADISTSDDSTYYADSVKGRFTISRDNAKNTVYLQMNSLKPEDTAVYYCATATRTYSAWYEYDYWGQGTQVTVSS	low polyreactivity
QVQLVESGGGLVQAGGSLRLSSAASGLIFYSYTMGWNRQAPGKERELVAVISRSGTSTYYADSVKGRFTISRDNAKNTVYLQMNSLKPEDTSVYYCAALTRSGPYAYEYWGQGTQVTVSS	high polyreactivity
QVQLVESGGGLVQAGGSLRLSSAASGLNFYWYAMGWSRQAPGKERELVAAISTAGSTNYADSVKGRFTISRDNAKNTVYLQMISLKPEDTAVYYCNARIAYRYSNYGYWGQGTQVTVSS	low polyreactivity
QVQLVESGGGLVQAGGSLRLSSAASGLTFYRNAMGWYRQAPGKERELVAGISSSGASTYYADSVKGRFTISRDNAKNTVYLQMNSLKPEDTAVYYCAVRFYGRYLRYNYWGQGTQVTVSS	high polyreactivity

Sequence	polyreactivity (PSR sort gate)
QVQLVESGGGLVQAGGSLRLSSAASGLTFYVYAMGWYRQGPGKEREWVARITWSGGSTYYADSVKGRFTISRDHAKNTVYLQMNSLKPEDTAVYYCAAEWSEESDYWGQGTQVTVSS	low polyreactivity
QVQLVESGGGLVQAGGSLRLSSAASGLTIYYYAMGWYRQAPGKERELVAAITWRGGSTYYADSVKGRFTISRDNAKYPDYLQMNCLIPAVTAVYYSAADPGPYGYYYWGQGTQVTVSS	low polyreactivity
QVQLVESGGGLVQAGGSLRLSSAASGNIFDYYAMGCYRQAPGKERELVASISWSGRGTYYADSVKGRFTISRDNAKNTVYVQMTSLKAEDTAVYYCAADGSTVNAPRWSDPYDYWGQGSQVTVSS	low polyreactivity
QVQLVESGGGLVQAGGSLRLSSAASGNIMDVYAMGWYRQAPGKERELVAAISGTDGSTYYADSVKGRFTISRDNAKNTVYLQMNSLKPEDTAVYYCAAEYVYFWWGENYWGQGTQVTVSS	high polyreactivity
QVQLVESGGGLVQAGGSLRLSSAASGNNFHFYAMGSYRQAPGKERELVATISWRGDGTYYADSVKGRFTISRDNAKNTVYLQMNSLKPEDTAVYYCAGRGVWPEYDYWGQGTQVNVSS	low polyreactivity
QVQLVESGGGLVQAGGSLRLSSAASGRIFARYAMGWYIQAPGKERELVAAITVSGDNTYYADSVKGRFTISRDNAKNTVYLQMNSRKPEDSADYYCDVRAVLLFGFFEYDYWGHGTQVTVSS	low polyreactivity
QVQLVESGGGLVQAGGSLRLSSAASGRIFFGNTMGWYRQAPGKERELVATIRKIGGRTYYADSVKGRFTISRDNAKNTVYLQMNSLKPEDTAVYYCATDFAPSYYPDRFDYWGQGTQVTVSS	low polyreactivity
QVQLVESGGGLVQAGGSLRLSSAASGRIFKIYPMVWYRQAPGKERELVAAISGRGGSTYYADSVKGRFTISRDNAKNTVYLQMISLKPEDTAVYYCAAVGYGFSAYSTYDYWGQGTQVTVSS	high polyreactivity
QVQLVESGGGLVQAGGSLRLSSAASGRIFKYYAMGWYRQAPGKERELVAAISWRGGRTYYADSVKGRFTISRDNAKNTVYLQMNSLKPEDTAVYYCAAEWYATMGYWGQGTQVTVSS	low polyreactivity
QVQLVESGGGLVQAGGSLRLSSAASGRIFPHNAMGWYRQAPGKERELVAAISSNGGSTYYADSVKGRFTISRDNAKNTVYLQMNSLKPEDTAVYYCAKYRYFAGDGDYWGQGTQVTVSS	low polyreactivity
QVQLVESGGGLVQAGGSLRLSSAASGRIFQRYAMGCYRQAPGKERELVAAISGSGGRTYYADSVKGRFTISRDNAKNTVYLQLNSLKPDDSAVYYCAAYPSYYADSGLRYDYWGQGTQVTVSS	high polyreactivity
QVQLVESGGGLVQAGGSLRLSSAASGRIFRWYAMGWYRQAPGKERELVATISSTGGSTYYADSVKGRFTISRDNAKNTVYLQMNSLKPEDTAVYYSNAVVYGIFLYAWYDYWGQGTQVTVSS	low polyreactivity
QVQLVESGGGLVQAGGSLRLSSAASGRIFRYYTMGWYRQAPGKERELVATITSDGRTNYADSVNGRFTISRDNAKNSVYLQMNSLKPEDTAVYYCAARYVMGGQGTSRRVGGGYWGQGTQVTVSS	high polyreactivity
QVQLVESGGGLVQAGGSLRLSSAASGRIFSRYAMGWYRQAPGKERELVAAITQSGTSTYYADSVKGRFTISRDNAKNTVYLQMNSLKPEDTAVYYCNAYRQYRYDYWGQGSQVTVSS	low polyreactivity
QVQLVESGGGLVQAGGSLRLSSAASGRIFYGYAMGWYRQAPGKERELVAGISKRGGSTRYADSVKGRFTISRDNAKNTVYLHMNSLKPEDTAVYYCNRLPYLHYAGRLTNYDYWGQGTQVTVSS	high polyreactivity
QVQLVESGGGLVQAGGSLRLSSAASGRIFYKYAMGWNRQAPGKERELVAGITGSGGSTYYADSVKGRFTISRDNAKNTVYLQMNSLKPEDTAVYYCAKRVSYDYWGQGTQVTVSS	low polyreactivity
QVQLVESGGGLVQAGGSLRLSSAASGRISDFYTMGWYRQAPGKERELVAVIRTSGGRTNYADSVKGRFTISRDNAKNTVYLQMNSLKPEDTAVYYCAARVVRYGYKYYYWGQGTQVTVSS	low polyreactivity
QVQLVESGGGLVQAGGSLRLSSAASGRTFAWNAMGWYRQAPGKERELVAAISYNGGRTYYADSVKGRFTISRDNAKNTVYLQMNSLKPEDTAVYYCAAQRYGYWGQGTQVTVSS	high polyreactivity
QVQLVESGGGLVQAGGSLRLSSAASGRTFAWYAMGWYRQAPGKERELVAAISSGGSTYYADSVKGRFTISRDNAKNTVYLQMDSLKPEDTAVYYCAAEWHYIYAYDYWGQGTQVTVSS	low polyreactivity
QVQLVESGGGLVQAGGSLRLSSAASGRTFFRSGMGWYRQAPGKEREFVAAITRSGTTTYYADSVKGRFTISRDNAKQTVYLPMNSLQPEDTAVYYCAAQRAAPVDGKSDYWGHGTQVTVSS	low polyreactivity
QVQLVESGGGLVQAGGSLRLSSAASGRTFNYYTMGWYRQAPGKERELVAAITNGGSTNYADSVKGRFTISRDNAKNTVYLQMNSLKPEDTAVYYCNADAFAFRTLHYDYWGQGTQVTVSS	low polyreactivity
